Measured values published in US20190309066A1, “COMBINATION THERAPY FOR THE TREATMENT OF SOLID AND HEMATOLOGICAL CANCERS” (Arch Oncology, Inc., priority 2017, published 2019).
Values belong to the molecule of their own block, whether it stands above or below them.

Tests used:
[1] = molecular target: T1, recombinant human CD47 (His-CD47) (Homo sapiens, UniProt Q08722); experiment: Solid-phase His-CD47 ELISA at pH 6 or pH 8; type: binding; conditions: pH 6.0 vs pH 8.0
T1 construct: His; purchased Acro Biosystems
T1 sequence (Q08722 19-323): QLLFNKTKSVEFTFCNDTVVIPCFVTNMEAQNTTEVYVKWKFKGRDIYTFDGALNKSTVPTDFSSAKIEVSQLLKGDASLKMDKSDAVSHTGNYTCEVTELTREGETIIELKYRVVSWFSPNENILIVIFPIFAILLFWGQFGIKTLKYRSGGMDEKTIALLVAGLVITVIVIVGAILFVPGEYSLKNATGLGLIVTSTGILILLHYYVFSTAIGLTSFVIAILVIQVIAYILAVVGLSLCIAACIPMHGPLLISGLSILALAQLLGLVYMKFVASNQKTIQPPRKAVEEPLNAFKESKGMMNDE
Method: Binding by soluble anti-CD47 mAbs to immobilized recombinant human CD47 and to human CD47 expressed on cells was measured in vitro. For the in vitro binding to recombinant CD47, His-CD47 (AcroBiosystems) was adsorbed to high-binding microtiter plates overnight at 4° C. The wells were washed and varying concentrations of anti-CD47 mAbs were added to the wells in buffers with a of either pH 6 or pH 8 for 1 hour. The wells were washed and then incubated with HRP-labelled secondary antibody for 1 hour at pH 6 or pH 8 followed by addition of peroxidase substrate. The apparent affinities were calculated using non-linear fit model (Graphpad Prism).

Jurkat cells = experiment: In vitro cell death assay (annexin V / 7-AAD); type: cell-based, human; conditions: 1 μg/ml soluble mAb, 24 hrs
Method: Induction of cell death by soluble anti-CD47 mAbs is measured in vitro (Manna et al. (2003) J. Immunol. […] (7): 3544-53, Kikuchi et al. Biochem Biophys Res. Commun. 315: 912-8, 2004), Pettersen et al. J. Immuno. 162: 7031-7040, 1999), Manna et al. Cancer Research, 64: 1026-1036, 2004). For the in vitro cell death assay, 1×10^5 transformed human T cells (Jurkat cells) were incubated with soluble humanized VLX4, VLX8, and VLX9 CD47 mAbs (1 μg/ml) for 24 hrs at 37° C. As cell death occurs, mitochondrial membrane potential is decreased, the inner leaflet of the cell membrane is inverted, exposing phosphatidylserines (PS), and propidium iodide (PI) or 7-aminoactinomycin D (7-AAD) is able to incorporate into nuclear DNA. In order to detect these cellular changes, cells were then stained with fluorescently labelled annexin V and PI or 7-aminoactinomycin D (7-AAD) (BD Biosciences) and the signal detected using an Accuri C6 flow cytometer (BD Biosciences). The increase in PS exposure is determined by measuring the percent increase in annexin V signal and the percent of dead cells by measuring the percent increase in PI or 7-AAD signal. Annexin V positive (annexin V+) or annexin V positive/7-AAD negative (annexin V^+/7-AAD^−) cells are observed in early stages of cell death and annexin V positive/7-AAD positive (annexin V^+/7-AAD^+) cells are dead cells. […]

[2] = system: human red blood cells (hRBCs); experiment: Hemagglutination of washed hRBCs; type: cell-based; conditions: mAb concentrations 50 μg/ml down to 0.3 ng/ml or 0.3 pg/ml
Method: Hemagglutination of hRBCs was assessed following incubation of hRBCs with various concentrations of chimeric and humanized VLX4, VLX8, and VLX9 mAbs in vitro essentially as described by Kikuchi et al. Biochem Biophys Res. Commun (2004) 315:912-918. Blood was obtained from healthy donors, diluted (1:50) in PBS/1 mM EDTA/BSA and washed 3 times with PBS/EDTA/BSA. hRBCs were added to U-bottomed 96 well plates with equal volumes of the antibodies (75 μl of each) and incubated for 3 hrs at 37° C. and overnight at 4° C.

pH dependence of binding to His-CD47 [1]: did not display pH dependence
B1: VLX9 IgG (murine): murine VLX9 anti-CD47 antibody (antibody, V domains shown)
VH: QVQLQQFGAELAKPGASVQMSCKASGYTFTNYWIHWVKQRPGQGLEWIGYTDPRTDYTEYNQKFKDKATLAADRSSSTAYMRLSSLTSEDSAVYYCAGGGRVGLGYWGHGSSVTVSS
VL: DVFMTQTPLSLPVSLGDQASISCRSSQNIVQSNGNTYLEWYLQKPGQSPKLLIYKVFHRFSGVPDRFSGSGSGTDFTLKISRVEAEDLGVYYCFQGSHVPWTFGGGTKVEIK

B2: VLX9 IgG2 (xi): chimeric (murine-human) anti-CD47 mAb, human IgG2 (antibody)
heavy: QVQLQQFGAELAKPGASVQMSCKASGYTFTNYWIHWVKQRPGQGLEWIGYTDPRTDYTEYNQKFKDKATLAADRSSSTAYMRLSSLTSEDSAVYYCAGGGRVGLGYWGHGSSVTVSSASTKGPSVFPLAPCSRSTSESTAALGCLVKDYFPEPVTVSWNSGALTSGVHTFPAVLQSSGLYSLSSVVTVPSSNFGTQTYTCNVDHKPSNTKVDKTVERKCCVECPPCPAPPVAGPSVFLFPPKPKDTLMISRTPEVTCVVVDVSHEDPEVQFNWYVDGVEVHNAKTKPREEQFNSTFRVVSVLTVVHQDWLNGKEYKCKVSNKGLPAPIEKTISKTKGQPREPQVYTLPPSREEMTKNQVSLTCLVKGFYPSDIAVEWESNGQPENNYKTTPPMLDSDGSFFLYSKLTVDKSRWQQGNVFSCSVMHEALHNHYTQKSLSLSPGK
light: DVFMTQTPLSLPVSLGDQASISCRSSQNIVQSNGNTYLEWYLQKPGQSPKLLIYKVFHRFSGVPDRFSGSGSGTDFTLKISRVEAEDLGVYYCFQGSHVPWTFGGGTKVEIKRTVAAPSVFIFPPSDEQLKSGTASVVCLLNNFYPREAKVQWKVDNALQSGNSQESVTEQDSKDSTYSLSSTLTLSKADYEKHKVYACEVTHQGLSSPVTKSFNRGEC
PS exposure and cell death (annexin V+, annexin V+/7-AAD−, annexin V+/7-AAD+) (Jurkat cells): induced increased PS exposure and cell death
hemagglutination of hRBCs (in words) [2]: caused visible hemagglutination
